Test results as given in IntAct's records for PubMed 19497856.

B1: Homeobox protein SIX1 (Homo sapiens), Q15475 (parent)
chain: MSMLPSFGFTQEQVACVCEVLQQGGNLERLGRFLWSLPACDHLHKNESVLKAKAVVAFHRGNFRELYKILESHQFSPHNHPKLQQLWLKAHYVEAEKLRGRPLGAVGKYRVRRKFPLPRTIWDGEETSYCFKEKSRGVLREWYAHNPYPSPREKRELAEATGLTTTQVSNWFKNRRQRDRAAEAKERENTENNNSSSNKQNQLSPLEGGKPLMSSSEEEFSPPQSPDQNSVLLLQGNMGHARSSNYSLPGLTASQPSHGLQTHQHQLQDSLLGPLTSSLVDLGS
partner: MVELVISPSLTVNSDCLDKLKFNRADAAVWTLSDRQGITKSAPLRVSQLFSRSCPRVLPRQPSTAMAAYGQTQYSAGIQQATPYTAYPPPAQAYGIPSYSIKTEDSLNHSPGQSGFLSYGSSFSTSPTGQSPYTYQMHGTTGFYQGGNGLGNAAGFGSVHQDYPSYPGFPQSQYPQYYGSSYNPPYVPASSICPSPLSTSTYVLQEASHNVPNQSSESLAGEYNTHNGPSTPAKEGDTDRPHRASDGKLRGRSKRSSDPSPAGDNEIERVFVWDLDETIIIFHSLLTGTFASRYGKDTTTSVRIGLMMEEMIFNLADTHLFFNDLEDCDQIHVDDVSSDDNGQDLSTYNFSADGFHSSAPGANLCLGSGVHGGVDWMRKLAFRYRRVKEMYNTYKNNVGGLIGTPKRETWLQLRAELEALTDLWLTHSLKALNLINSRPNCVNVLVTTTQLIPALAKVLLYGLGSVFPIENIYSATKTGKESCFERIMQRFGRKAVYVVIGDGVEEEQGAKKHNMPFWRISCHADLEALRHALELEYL

Variants of: B1
Settings: with eya2_human EYA2, O00167

| Variant | effect of a mutation on the interaction |
| --- | --- |
| MSMLPSFGFTQEQVACECEVLQQGGNLERLGRFLWSLPACDHLHKNESVLKAKAVVAFHRGNFRELYKILESHQFSPHNHPKLQQLWLKAHYVEAEKLRGRPLGAVGKYRVRRKFPLPRTIWDGEETSYCFKEKSRGVLREWYAHNPYPSPREKRELAEATGLTTTQVSNWFKNRRQRDRAAEAKERENTENNNSSSNKQNQLSPLEGGKPLMSSSEEEFSPPQSPDQNSVLLLQGNMGHARSSNYSLPGLTASQPSHGLQTHQHQLQDSLLGPLTSSLVDLGS [V17E] | decreasing interaction strength |
